Read-outs that look alike come from different tables or passages of the source. Square brackets hold non-standard residues; d marks the D form. * marks the point of attachment. Palmitoyl = CCCCCCCCCCCCCCCC(=O)*
Key:
Assay in all cases: cell-based or functional assay
[1] = molecular target: T1, CXCR4 receptor (human, UniProt P61073 1-352)
[2] = molecular target: T1, CXCR4 receptor; remark: listed apart in the source
[3] = molecular target: T1, CXCR4 receptor; remark: listed apart in the source

T1 sequence (P61073 whole entry): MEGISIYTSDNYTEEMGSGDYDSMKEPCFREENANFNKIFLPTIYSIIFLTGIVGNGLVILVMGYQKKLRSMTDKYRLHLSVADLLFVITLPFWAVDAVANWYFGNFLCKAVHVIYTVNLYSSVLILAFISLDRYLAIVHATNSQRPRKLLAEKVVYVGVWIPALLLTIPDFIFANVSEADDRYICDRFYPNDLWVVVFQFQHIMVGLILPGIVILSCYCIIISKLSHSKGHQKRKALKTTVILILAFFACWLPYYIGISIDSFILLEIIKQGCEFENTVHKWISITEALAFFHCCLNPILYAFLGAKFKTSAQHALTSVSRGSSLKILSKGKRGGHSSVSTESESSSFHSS

B1: CXCR4 i1 loop compound 136 (peptide)
peptide: Palmitoyl-MGYQKKLASMTDKYRL-NH2
SMILES: CCCCCCCCCCCCCCCC(=O)N[C@@H](CCSC)C(=O)NCC(=O)N[C@@H](Cc1ccc(O)cc1)C(=O)N[C@@H](CCC(N)=O)C(=O)N[C@@H](CCCCN)C(=O)N[C@@H](CCCCN)C(=O)N[C@@H](CC(C)C)C(=O)N[C@@H](C)C(=O)N[C@@H](CO)C(=O)N[C@@H](CCSC)C(=O)N[C@H](C(=O)N[C@@H](CC(=O)O)C(=O)N[C@@H](CCCCN)C(=O)N[C@@H](Cc1ccc(O)cc1)C(=O)N[C@@H](CCCNC(=N)N)C(=O)N[C@@H](CC(C)C)C(N)=O)[C@@H](C)O
In the case of B1, the “IC50 (nM), calcium flux, CCRF-CEM” value [1] is reported as 302 nM.

B2: Compound No. 38 (Pal-MGYQKKLRSMTDKYRL-amide) (peptide)
peptide: Palmitoyl-MGYQKKLRSMTDKYRL-NH2
SMILES: CCCCCCCCCCCCCCCC(=O)N[C@@H](CCSC)C(=O)NCC(=O)N[C@@H](Cc1ccc(O)cc1)C(=O)N[C@@H](CCC(N)=O)C(=O)N[C@@H](CCCCN)C(=O)N[C@@H](CCCCN)C(=O)N[C@@H](CC(C)C)C(=O)N[C@@H](CCCNC(=N)N)C(=O)N[C@@H](CO)C(=O)N[C@@H](CCSC)C(=O)N[C@H](C(=O)N[C@@H](CC(=O)O)C(=O)N[C@@H](CCCCN)C(=O)N[C@@H](Cc1ccc(O)cc1)C(=O)N[C@@H](CCCNC(=N)N)C(=O)N[C@@H](CC(C)C)C(N)=O)[C@@H](C)O
B2 was tested, and the “IC50 (nM), calcium flux, CCRF-CEM” value [1] was 98 nM, the “AUC (% of), CHTX, SUP B-15, 1.0 uM” value [2] was 32.4% and the “Max (% of), CHTX, SUP B-15, 1.0 uM” value [2] was 49.6%. The “Peak Ratio, CHTX, CEM, 1.0 uM” value [2] was 0.2 and the “Peak Ratio, CHTX, SUP B-15, 1.0 uM” value [2] was 0.2.

B3: CXCR4 i4 loop compound 116 (peptide)
peptide: Palmitoyl-GAKFKTSAQHALTSVR-NH2
SMILES: CCCCCCCCCCCCCCCC(=O)NCC(=O)N[C@@H](C)C(=O)N[C@@H](CCCCN)C(=O)N[C@@H](Cc1ccccc1)C(=O)N[C@@H](CCCCN)C(=O)N[C@H](C(=O)N[C@@H](CO)C(=O)N[C@@H](C)C(=O)N[C@@H](CCC(N)=O)C(=O)N[C@@H](Cc1c[nH]cn1)C(=O)N[C@@H](C)C(=O)N[C@@H](CC(C)C)C(=O)N[C@H](C(=O)N[C@@H](CO)C(=O)N[C@H](C(=O)N[C@@H](CCCNC(=N)N)C(N)=O)C(C)C)[C@@H](C)O)[C@@H](C)O
In the case of B3, the “AUC (% of Vehicle), CHTX, CEM, 1.0 uM” value [3] is reported as 65.3 % of Vehicle, the “Max (% of Vehicle), CHTX, CEM, 1.0 uM” value [3] is reported as 80.5 % of Vehicle and the “Peak Ratio, CHTX, CEM, 1.0 uM” value [3] is reported as 1.

B4: CXCR4 i1 loop compound 135 (peptide)
peptide: Palmitoyl-MGYQKKARSMTDKYRL-NH2
SMILES: CCCCCCCCCCCCCCCC(=O)N[C@@H](CCSC)C(=O)NCC(=O)N[C@@H](Cc1ccc(O)cc1)C(=O)N[C@@H](CCC(N)=O)C(=O)N[C@@H](CCCCN)C(=O)N[C@@H](CCCCN)C(=O)N[C@@H](C)C(=O)N[C@@H](CCCNC(=N)N)C(=O)N[C@@H](CO)C(=O)N[C@@H](CCSC)C(=O)N[C@H](C(=O)N[C@@H](CC(=O)O)C(=O)N[C@@H](CCCCN)C(=O)N[C@@H](Cc1ccc(O)cc1)C(=O)N[C@@H](CCCNC(=N)N)C(=O)N[C@@H](CC(C)C)C(N)=O)[C@@H](C)O
For B4, the “IC50 (nM), calcium flux, CCRF-CEM” value [1] was 175 nM.

Palmitoyl-MGYQKKLRS[dM]TDKYRL-NH2 [CXCR4 i1 loop compound 173] was tested, and the “IC50 (nM), calcium flux, CCRF-CEM” value [1] was 97 nM.

B5: CXCR4 i1 loop compound 130 (peptide)
peptide: Palmitoyl-MAYQKKLRSMTDKYRL-NH2
SMILES: CCCCCCCCCCCCCCCC(=O)N[C@@H](CCSC)C(=O)N[C@@H](C)C(=O)N[C@@H](Cc1ccc(O)cc1)C(=O)N[C@@H](CCC(N)=O)C(=O)N[C@@H](CCCCN)C(=O)N[C@@H](CCCCN)C(=O)N[C@@H](CC(C)C)C(=O)N[C@@H](CCCNC(=N)N)C(=O)N[C@@H](CO)C(=O)N[C@@H](CCSC)C(=O)N[C@H](C(=O)N[C@@H](CC(=O)O)C(=O)N[C@@H](CCCCN)C(=O)N[C@@H](Cc1ccc(O)cc1)C(=O)N[C@@H](CCCNC(=N)N)C(=O)N[C@@H](CC(C)C)C(N)=O)[C@@H](C)O
With B5 the “IC50 (nM), calcium flux, CCRF-CEM” value [1] was 125 nM.

For Palmitoyl-MGYQKKLR[dS]MTDKYRL-NH2 [CXCR4 i1 loop compound 172], the “IC50 (nM), calcium flux, CCRF-CEM” value [1] was 90 nM.

Palmitoyl-MGYQKKL[dR]SMTDKYRL-NH2 [CXCR4 i1 loop compound 171] was tested, and the “IC50 (nM), calcium flux, CCRF-CEM” value [1] was 72 nM.

B6: CXCR4 i1 loop compound 134 (peptide)
peptide: Palmitoyl-MGYQKALRSMTDKYRL-NH2
SMILES: CCCCCCCCCCCCCCCC(=O)N[C@@H](CCSC)C(=O)NCC(=O)N[C@@H](Cc1ccc(O)cc1)C(=O)N[C@@H](CCC(N)=O)C(=O)N[C@@H](CCCCN)C(=O)N[C@@H](C)C(=O)N[C@@H](CC(C)C)C(=O)N[C@@H](CCCNC(=N)N)C(=O)N[C@@H](CO)C(=O)N[C@@H](CCSC)C(=O)N[C@H](C(=O)N[C@@H](CC(=O)O)C(=O)N[C@@H](CCCCN)C(=O)N[C@@H](Cc1ccc(O)cc1)C(=O)N[C@@H](CCCNC(=N)N)C(=O)N[C@@H](CC(C)C)C(N)=O)[C@@H](C)O
B6 was tested, and the “IC50 (nM), calcium flux, CCRF-CEM” value [1] was 250 nM.

B7: CXCR4 i1 loop compound 133 (peptide)
peptide: Palmitoyl-MGYQAKLRSMTDKYRL-NH2
SMILES: CCCCCCCCCCCCCCCC(=O)N[C@@H](CCSC)C(=O)NCC(=O)N[C@@H](Cc1ccc(O)cc1)C(=O)N[C@@H](CCC(N)=O)C(=O)N[C@@H](C)C(=O)N[C@@H](CCCCN)C(=O)N[C@@H](CC(C)C)C(=O)N[C@@H](CCCNC(=N)N)C(=O)N[C@@H](CO)C(=O)N[C@@H](CCSC)C(=O)N[C@H](C(=O)N[C@@H](CC(=O)O)C(=O)N[C@@H](CCCCN)C(=O)N[C@@H](Cc1ccc(O)cc1)C(=O)N[C@@H](CCCNC(=N)N)C(=O)N[C@@H](CC(C)C)C(N)=O)[C@@H](C)O
In the case of B7, the “IC50 (nM), calcium flux, CCRF-CEM” value [1] is reported as 200 nM.

B8: CXCR4 i1 loop compound 132 (peptide)
peptide: Palmitoyl-MGYAKKLRSMTDKYRL-NH2
SMILES: CCCCCCCCCCCCCCCC(=O)N[C@@H](CCSC)C(=O)NCC(=O)N[C@@H](Cc1ccc(O)cc1)C(=O)N[C@@H](C)C(=O)N[C@@H](CCCCN)C(=O)N[C@@H](CCCCN)C(=O)N[C@@H](CC(C)C)C(=O)N[C@@H](CCCNC(=N)N)C(=O)N[C@@H](CO)C(=O)N[C@@H](CCSC)C(=O)N[C@H](C(=O)N[C@@H](CC(=O)O)C(=O)N[C@@H](CCCCN)C(=O)N[C@@H](Cc1ccc(O)cc1)C(=O)N[C@@H](CCCNC(=N)N)C(=O)N[C@@H](CC(C)C)C(N)=O)[C@@H](C)O
For B8, the “IC50 (nM), calcium flux, CCRF-CEM” value [1] was 213 nM.

B9: CXCR4 i1 loop compound 131 (peptide)
peptide: Palmitoyl-MGAQKKLRSMTDKYRL-NH2
SMILES: CCCCCCCCCCCCCCCC(=O)N[C@@H](CCSC)C(=O)NCC(=O)N[C@@H](C)C(=O)N[C@@H](CCC(N)=O)C(=O)N[C@@H](CCCCN)C(=O)N[C@@H](CCCCN)C(=O)N[C@@H](CC(C)C)C(=O)N[C@@H](CCCNC(=N)N)C(=O)N[C@@H](CO)C(=O)N[C@@H](CCSC)C(=O)N[C@H](C(=O)N[C@@H](CC(=O)O)C(=O)N[C@@H](CCCCN)C(=O)N[C@@H](Cc1ccc(O)cc1)C(=O)N[C@@H](CCCNC(=N)N)C(=O)N[C@@H](CC(C)C)C(N)=O)[C@@H](C)O
In the case of B9, the “IC50 (nM), calcium flux, CCRF-CEM” value [1] is reported as 147 nM.
